# B1: AChE-R overexpressed in AChE-R transgenic mice (protein)
# chain: EGREDAELLVTVRGGRLRGIRLKTPGGPVSAFLGIPFAEPPMGPRRFLPPEPKQPWSGVVDATTFQSVCYQYVDTLYPGFEGTEMWNPNRELSEDCLYLNVWTPYPRPTSPTPVLVWIYGGGFYSGASSLDVYDGRFLVQAERTVLVSMNYRVGAFGFLALPGSREAPGNVGLLDQRLALQWVQENVAAFGGDPTSVTLFGESAGAASVGMHLLSPPSRGLFHRAVLQSGAPNGPWATVGMGEARRRATQLAHLVGCPPGGTGGNDTELVACLRTRPAQVLVNHEWHVLPQESVFRFSFVPVVDGDFLSDTPEALINAGDFHGLQVLVGVVKDEGSYFLVYGAPGFSKDNESLISRAEFLAGVRVGVPQVSDLAAEAVVLHYTDWLHPEDPARLREALSDVVGDHNVVCPVAQLAGRLAAQGARVYAYVFEHRASTLSWPLWMGVPHGYEIEFIFGIPLDPSRNYTAEEKIFAQRLMRYWANFARTGDPNEPRDPKAPQWPPYTAGAQQYVSLDLRPLEVRRGLRAQACAFWNRFLPKLLSATGMQGPAGSAGRRGVGARQCNPSLLPLASE
# Biological target: PKCβII (mouse brain homogenates), P68404
# Sequence (P68404 other isoform, or with tags, fused parts or gaps): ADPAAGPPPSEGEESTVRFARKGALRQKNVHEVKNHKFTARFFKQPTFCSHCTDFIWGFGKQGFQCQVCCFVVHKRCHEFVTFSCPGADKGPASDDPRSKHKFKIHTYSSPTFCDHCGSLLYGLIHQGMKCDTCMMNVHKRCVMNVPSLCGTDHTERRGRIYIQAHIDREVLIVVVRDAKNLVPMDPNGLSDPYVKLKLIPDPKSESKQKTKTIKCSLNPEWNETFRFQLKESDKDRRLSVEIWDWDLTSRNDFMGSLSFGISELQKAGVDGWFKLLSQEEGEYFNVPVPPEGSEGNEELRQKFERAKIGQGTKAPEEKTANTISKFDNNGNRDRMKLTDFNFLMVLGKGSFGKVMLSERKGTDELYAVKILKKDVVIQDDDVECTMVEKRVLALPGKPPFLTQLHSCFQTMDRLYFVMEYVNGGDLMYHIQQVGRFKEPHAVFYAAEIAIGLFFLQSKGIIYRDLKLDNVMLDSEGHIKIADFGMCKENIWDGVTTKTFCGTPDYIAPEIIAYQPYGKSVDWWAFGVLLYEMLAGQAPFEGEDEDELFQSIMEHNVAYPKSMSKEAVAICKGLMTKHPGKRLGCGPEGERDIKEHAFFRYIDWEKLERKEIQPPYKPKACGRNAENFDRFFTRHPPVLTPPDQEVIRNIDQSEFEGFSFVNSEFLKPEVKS
protein,measurement,value
B1,"PKC activity in brain homogenates (PKC assay kit, Upstate Biotechnology)",Note the elevation of PKC activity in the different brain regions in the AChE-R transgenics as compered to FVB/N controls

# Reference: patent publication US20040058357
